From article PMC6948721

Columns and labels:
Details in all cases: 10 mM Na2HPO4 pH 7.3, 22 °C
purified protein [1] = substrate: O=C(O)C(O)=Cc1ccccc1; assay: purified protein
purified protein [2] = substrate: O=C(O)C=CC=C(O)C(=O)O; assay: purified protein
[3] = substrate: CC(=CC=C(O)C(=O)O)C(=O)O; assay: UV steady-state kinetics, enol-keto tautomerization; type: biochemical, Burkholderia lata
[4] = substrate: C=CC=C(O)C(=O)O; assay: as above; type: biochemical, Burkholderia lata

| Protein | Km (purified protein [1]) [µM] | kcat (purified protein [1]) [s⁻¹] | kcat/Km (purified protein [1]) [M⁻¹ s⁻¹] | Km (purified protein [2]) [µM] | kcat (purified protein [2]) [s⁻¹] | kcat/Km (purified protein [2]) [M⁻¹ s⁻¹] | Km [3] [µM] | kcat [3] [s⁻¹] | kcat/Km [3] [M⁻¹ s⁻¹] | Km [4] [µM] | kcat [4] [s⁻¹] | kcat/Km [4] [M⁻¹ s⁻¹] |
| --- | --- | --- | --- | --- | --- | --- | --- | --- | --- | --- | --- | --- |
| unfused 4-OT (Burkholderia lata) (protein) chain 1: PTLEVFLPAGHDDARKAELIARLTGATVDSIGAPIESVRVLLTELPATHIGLGGRSAADGAPPSL chain 2: PVIVAILIAGRTDEQKRALIAALSETSASVLDAPLQATRVMIKDIPNTDFGIGGQTARALGR | 346 ± 28 | 19.3 ± 0.7 | 56000 | 148 ± 18 | 105 ± 6 | 710000 |  |  |  |  |  |  |
| fused 4-OT (fused 4-oxalocrotonate tautomerase) (Burkholderia lata) (protein) PTLEVFLPAGHDDARKAELIARLTGATVDSIGAPIESVRVLLTELPATHIGLGGRSAADGAPPSLPVIVAILIAGRTDEQKRALIAALSETSASVLDAPLQATRVMIKDIPNTDFGIGGQTARALGR |  |  |  |  |  |  | 147 ± 9 | 72 ± 2 | 490000 | 1330 ± 140 | 170 ± 12 | 130000 |
